Measured values reported in the supplement of paper PMC10724198.
± gives the standard deviation of the averaged measurements.

The sequences below were run on Saccharomyces cerevisiae (assay: protein stability index of tFT-peptide fusion (C-terminal peptide) (PSI (0-1 scale)); higher = more stable (slower turnover)). Conditions: genetic background: wild type; temperature: 30 C.
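Also: PSI is a weighted mean of sequencing reads over stability bins, variants kept only with over 10 reads, mCherry proximal and sfGFP distal, peptide attached via GGGS linker.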

Going from NSPRKKPHKSIT to FFFECPCWLGVF, the protein stability index falls from 0.711 ± 0.014 to 0.542 ± 0.019.

First: VFSASCYSNSAR
Second: GGCGGGGGVVVR
The protein stability index of the first is higher: 0.739 ± 0.032 for the first, 0.7029 ± 0.0021 for the second.

First: IIPQSCTSGGHT
Second: HPPPFRLPPAPP
The protein stability index of the first is higher: 0.711 ± 0.061 for the first, 0.639 ± 0.0072 for the second.

First: GVRRVVKGTKGC
Second: YESISGLGHLSG
The protein stability index of the first is lower: 0.662 ± 0.013 for the first, 0.6962 ± 0.005 for the second.

PLPASFPPFPTL and VGGIVGWFCRGR are within error of each other in protein stability index: 0.802 ± 0.036 for the first, 0.698 ± 0.081 for the second.

Compared with LCPSLSSPTSAT, HHPLGSPPVPPP is higher in protein stability index: 0.659 ± 0.029 for the first, 0.729 ± 0.039 for the second.

Going from VLLHFRSFAPPV to GEGRAAGEIGGV, the protein stability index rises from 0.613 ± 0.008 to 0.707 ± 0.033.

ELRSYAGMSGFN and DLTRALQAGHDR are within error of each other in protein stability index: 0.736 ± 0.014 for the first, 0.695 ± 0.039 for the second.

PPTFPPLLSPPP and SPRPPPLIIAST are within error of each other in protein stability index: 0.661 ± 0.025 for the first, 0.664 ± 0.031 for the second.

DPAHPRPFDCPL and KEGSGQRRARRA are within error of each other in protein stability index: 0.709 ± 0.013 for the first, 0.686 ± 0.066 for the second.

ATLCVVSKLGLC and NLIGVVKSEYHR are within error of each other in protein stability index: 0.589 ± 0.0069 for the first, 0.574 ± 0.01 for the second.

SPALSPDPSPSP and LHPSPPSPLPPP are within error of each other in protein stability index: 0.704 ± 0.037 for the first, 0.723 ± 0.028 for the second.

KKMKSKTKEINK and RSTTDVADNSRP are within error of each other in protein stability index: 0.698 ± 0.035 for the first, 0.631 ± 0.032 for the second.

PRPRSPLSPLAL and PITKLHRHYARG are within error of each other in protein stability index: 0.676 ± 0.031 for the first, 0.6972 ± 0.0015 for the second.

Compared with GDEDVSWLVFMG, LRLLCRTRCYRS is lower in protein stability index: 0.762 ± 0.024 for the first, 0.666 ± 0.019 for the second.

Going from SRPPLLLLSSGA to PRQLPVRKVSTG, the protein stability index rises from 0.6583 ± 0.0059 to 0.7042 ± 0.0022.

First: VAWRQSVDLGLL
Second: LIQKANGRIRRG
The protein stability index of the first is lower: 0.685 ± 0.047 for the first, 0.763 ± 0.02 for the second.

VFPARTALFFPQ and FPRLYHPNIKLP are within error of each other in protein stability index: 0.726 ± 0.05 for the first, 0.716 ± 0.13 for the second.

AWSALWGAVSPY and SRRVSVSTSWNP are within error of each other in protein stability index: 0.7073 ± 0.0027 for the first, 0.718 ± 0.014 for the second.

IPSPYPPPAPLH and SGGRPVQSWCAW are within error of each other in protein stability index: 0.666 ± 0.011 for the first, 0.779 ± 0.29 for the second.

EGGPRTGGRGSR and SAPSPPPPLAPP are within error of each other in protein stability index: 0.67 ± 0.035 for the first, 0.679 ± 0.041 for the second.

PGNYVLSDPPLM and SHRRSMTNNKAK are within error of each other in protein stability index: 0.715 ± 0.033 for the first, 0.705 ± 0.01 for the second.

First: RPPPRSPPLPRL
Second: CRRHPLTVVPIL
The protein stability index of the first is higher: 0.806 ± 0.03 for the first, 0.619 ± 0.028 for the second.

WGGVGLRGGWDG and PDCSFLNSTFTS are within error of each other in protein stability index: 0.713 ± 0.047 for the first, 0.739 ± 0.088 for the second.

Going from APRLRRHPPHEP to NINVSFLSNECR, the protein stability index falls from 0.696 ± 0.0079 to 0.6735 ± 0.0021.

SPPSSPHPPPRT and PPLPFSRSPSSL are within error of each other in protein stability index: 0.693 ± 0.01 for the first, 0.69 ± 0.019 for the second.

Going from VLSSSTLFFLVF to PPPPPPPLPRSP, the protein stability index rises from 0.584 ± 0.024 to 0.721 ± 0.039.

NHVWGSNRCSSC and AGPPPERDPGAS are within error of each other in protein stability index: 0.689 ± 0.04 for the first, 0.684 ± 0.069 for the second.

DERREADLYPGE and GGFGVARVLYGL are within error of each other in protein stability index: 0.648 ± 0.059 for the first, 0.712 ± 0.035 for the second.

PPALLRLTSSAR and GMWGGLSPFLGQ are within error of each other in protein stability index: 0.702 ± 0.026 for the first, 0.691 ± 0.015 for the second.

GKNKRKTYGKRE and CCVSLQSNLLFS are within error of each other in protein stability index: 0.722 ± 0.035 for the first, 0.68 ± 0.026 for the second.

GVLIDVFGRSAV and GWARQAADGWGG are within error of each other in protein stability index: 0.696 ± 0.029 for the first, 0.709 ± 0.089 for the second.

Compared with FFPSFVLSFPCL, PPHAPLPPPLAL is higher in protein stability index: 0.641 ± 0.069 for the first, 0.7219 ± 0.0072 for the second.

Compared with LGRGRGGPLSGG, SQGAGKCIIIAA is lower in protein stability index: 0.7014 ± 0.003 for the first, 0.561 ± 0.015 for the second.

NARGRGAGGAST and FLSLSLFPFSSL are within error of each other in protein stability index: 0.626 ± 0.048 for the first, 0.698 ± 0.024 for the second.

Compared with GSLEGGGSGGGW, RCNCTTTTLRSK is lower in protein stability index: 0.6743 ± 0.0048 for the first, 0.6046 ± 0.0019 for the second.

GDIQRSNNFTIG showed a protein stability index of 0.779 ± 0.05.
